We go through one substance from patent publication US20080014172A1.

The target in this assay is TNFα (R&D Systems cat# 210-TA) (UniProt P01375). The assay is described as follows: cell-based or functional assay.
UniProt P01375, sequence (P01375 77-233 limits assumed): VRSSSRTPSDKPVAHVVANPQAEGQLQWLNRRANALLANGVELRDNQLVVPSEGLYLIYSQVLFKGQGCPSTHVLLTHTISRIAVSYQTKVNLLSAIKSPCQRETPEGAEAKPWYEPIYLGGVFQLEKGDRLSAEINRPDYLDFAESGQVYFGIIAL

Substance TNFα binding protein (TBP) showed an IC50 on TNFα-induced binding of Fibronectin-coated beads to BEND cells of 0.769 µg/mL.
